Measurements as given in publication PMC9335266 (Proceedings of the National Academy of Sciences of the …, 2022).

Molecular target: TRIM7^B30.2 (PRY-SPRY domain of human TRIM7, residues 338-511) (human, UniProt Q9C029 338-511)
Assay: ITC

With KRKLDTYLQ [GN1 peptide (KRKLDTYLQ), Ct-nonapeptide of glycogenin-1] the Kd was 2700 nM.
